Assay results: US20130171059A1 (AbbVie / Abbott, published 2013)

Legend:
[1] = target: T1, Recombinant Human TNF-α/TNFSF1A (human, UniProt P01375 77-233); assay: cell-based or functional assay
[2] = target: T1, Recombinant Human TNF-α/TNFSF1A; assay: SPR (Biacore)
Experimental: (§1) The BIACORE assay (Biacore, Inc, Piscataway, N.J.) determined the affinity of antibodies or DVD-Ig proteins with kinetic measurements of on-rate and off-rate constants. Binding of antibodies or DVD-Ig proteins to a target antigen (for example, a purified recombinant target antigen) was determined by surface plasmon resonance-based measurements with a Biacore® 1000 or 3000 instrument (Biacore® AB, Uppsala, Sweden) using running HBS-EP (10 mM HEPES [pH 7.4], 150 mM NaCl, 3 mM EDTA, and 0.005% surfactant P20) at 25° C. All chemicals were obtained from Biacore® AB (Uppsala, Sweden) or otherwise from a different source as described in the text. For example, approximately 5000 RU of goat anti-mouse IgG, (Fcγ), fragment specific polyclonal antibody (Pierce Biotechnology Inc, Rockford, Ill.) diluted in 10 mM sodium acetate (pH 4.5) was directly immobilized across a CM5 research grade biosensor chip using a standard amine coupling kit according to manufacturer's instructions and procedures at 25 μg/ml. Unreacted moieties on the biosensor surface were blocked with ethanolamine. Modified carboxymethyl dextran surface in flowcell 2 and 4 was used as a reaction surface. Unmodified carboxymethyl dextran without goat anti-mouse IgG in flow cell 1 and 3 was used as the reference surface. For kinetic analysis, rate equations derived from the 1:1 Langmuir binding model were fitted simultaneously to association and dissociation phases of all eight injections (using global fit analysis) with the use of Biaevaluation 4.0.1 software. Purified antibodies or DVD-Ig proteins were diluted in HEPES-buffered saline for capture across goat anti-mouse IgG specific reaction surfaces. Antibodies or DVD-Ig proteins to be captured as a ligand (25 μg/ml) were injected over reaction matrices at a flow rate of 5 μl/minute. The association and dissociation rate constants, kₒₙ (M⁻¹s⁻¹) and koff (s⁻¹) were determined under a continuous flow rate of 25 μl/minute. Rate constants were derived by making kinetic binding measurements at different antigen concentrations ranging from 10-200 nM. The equilibrium dissociation constant (M) of the reaction between antibodies or DVD-Ig proteins and the target antigen was then calculated from the kinetic rate constants by the following formula: KD=koff/kₒₙ. Binding was recorded as a function of time and kinetic rate constants were calculated.

Recombinant Human SOST [3] = target: T2, Recombinant Human SOST (human, UniProt Q9BQB4 24-213); assay: cell-based or functional assay
T2 sequence (looked up): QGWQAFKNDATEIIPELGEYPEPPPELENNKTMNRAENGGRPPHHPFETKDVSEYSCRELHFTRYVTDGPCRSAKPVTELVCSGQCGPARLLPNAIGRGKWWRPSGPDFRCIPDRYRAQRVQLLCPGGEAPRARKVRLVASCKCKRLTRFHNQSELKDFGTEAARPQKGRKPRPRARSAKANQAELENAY

Recombinant Human β-NGF = target: T3, Recombinant Human β-NGF (human, UniProt P01138 122-239, limits assumed); assay: SPR (Biacore)
T3 construct: Bought reagent for Biacore; also called huNGF; NGF (Rinat)
Experimental: as §1

Recombinant Human SOST [4] = target: T2, Recombinant Human SOST; assay: SPR (Biacore)
Experimental: as §1

T1 sequence (P01375 77-233 limits assumed): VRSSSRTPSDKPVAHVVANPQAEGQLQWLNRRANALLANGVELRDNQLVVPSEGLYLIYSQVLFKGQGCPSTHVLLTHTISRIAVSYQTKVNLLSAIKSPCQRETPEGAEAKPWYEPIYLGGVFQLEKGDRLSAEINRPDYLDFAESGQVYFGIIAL
T3 sequence (P01138 122-239 limits assumed): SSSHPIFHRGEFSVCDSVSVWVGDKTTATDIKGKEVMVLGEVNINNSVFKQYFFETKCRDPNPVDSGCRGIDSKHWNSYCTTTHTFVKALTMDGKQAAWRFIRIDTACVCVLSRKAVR

B1: AB213 (antibody, V domains shown)
VH: QVQLKESGPGLVAPSQSLSITCTVSGFSLTDYGVNWVRQPPGKGLEWLGMIWGDGSTDYDSTLKSRLSISKDNSKSQIFLKMNSLQTDDTARYYCAREWHHGPVAYWGQGTLVTVSA
VL: DIVMTQSHKFMSTTVGDRVSITCKASQAVSSAVAWYQQKPGQSPKLLIYWASTRHTGVPDRFTGSGSVTDFTLTIHNLQAEDLALYYCQQHYSTPFTFGSGTKLEIKR
notes: Parent antibody
TNFα Neutralization Assay IC50 (L929 cells) [1]: 244 pM
Kd [2]: 25 pM
koff [2]: 8.2e-05 s⁻¹
kon [2]: 3.2e+06 M⁻¹ s⁻¹

B2: DVD1982 (bispecific antibody, not shown: a dimerising Fc or GST)
heavy: DIQMTQSPSSLSASVGDRVTITCRASQGIRIDLGWYQQKPGKAPKRLIYAASTLQSGVPSRFSGSGSGTEFIFTISSLQPEDFASYYCLQHKSYPLTFGGGTKVEIKRTVAAPEVQLQQSGPELVTPGASVKISCKASGYTFTDHYMSWVKQSHGKSLEWIGDINPYSGETTYNQKFKGTATLTVDKSSSIAYMEIRGLTSEDSAVYYCARDDYDASPFAYWGQGTLVTVSA
light: QVQLVESGGGVVQPGRSLRLSCAASGFTFSSYDMHWVRQAPGKGLEWVAVIWSDGSIKYYADSVKGRFTISRDNSKNTLYLQMNSLRAEDTAVYYCAREVESAMGGFYYNGMDVWGQGTTVTVSSASTKGPDVQMIQSPSSLSASLGDIVTMTCQASQGTSINLNWFQQKPGKAPKLLIYGSSNLEDGVPSRFSGSRYGTDFTLTISSLEDEDLATYFCLQHSYLPYTFGGGTKLEIKR
C-Terminal VD SOST Neutralization Assay IC50 (Wnt-1/luciferase HEK clone #14) (Recombinant Human SOST [3]): > 100000 pM
N-Terminal VD TNFa Neutralization Assay IC50 (L929 cells) [1]: 17 pM

B3: AB217 (antibody, V domains shown)
VH: QVQLVESGGGVVQPGRSLRLSCAASGFTFSSYDMHWVRQAPGKGLEWVAVIWSDGSIKYYADSVKGRFTISRDNSKNTLYLQMNSLRAEDTAVYYCAREVESAMGGFYYNGMDVWGQGTTVTVSS
VL: DIQMTQSPSSLSASVGDRVTITCRASQGIRIDLGWYQQKPGKAPKRLIYAASTLQSGVPSRFSGSGSGTEFIFTISSLQPEDFASYYCLQHKSYPLTFGGGTKVEIKR
notes: Parent antibody
TNFα Neutralization Assay IC50 (L929 cells) [1]: 313 pM
Kd [2]: 28 pM
koff [2]: 4.8e-05 s⁻¹
kon [2]: 1.7e+06 M⁻¹ s⁻¹

B4: DVD1985 (bispecific antibody)
DVD-H: DIQMTQSPSSLSASVGDRVTITCRASQSISNNLNWYQQKPGKAPKLLIYYTSRFHSGVPSRFSGSGSGTDFTFTISSLQPEDIATYYCQQEHTLPYTFGQGTKLEIKRTVAAPQVQLVESGGGVVQPGRSLRLSCAASGFTFSSYDMHWVRQAPGKGLEWVAVIWSDGSIKYYADSVKGRFTISRDNSKNTLYLQMNSLRAEDTAVYYCAREVESAMGGFYYNGMDVWGQGTTVTVSS
DVD-L: QVQLQESGPGLVKPSETLSLTCTVSGFSLIGYDLNWIRQPPGKGLEWIGIIWGDGTTDYNSAVKSRVTISKDTSKNQFSLKLSSVTAADTAVYYCARGGYWYATSYYFDYWGQGTLVTVSSASTKGPDIQMTQSPSSLSASVGDRVTITCRASQGIRIDLGWYQQKPGKAPKRLIYAASTLQSGVPSRFSGSGSGTEFIFTISSLQPEDFASYYCLQHKSYPLTFGGGTKVEIK
notes: VH/VL crossover DVD-Ig; also called DVD1985H + DVD1985L; copies: 2 + 2
C-Terminal VD TNFα Neutralization Assay IC50 (L929 cells) [1]: 4510 pM
Kd (Recombinant Human β-NGF): 12 pM
koff (Recombinant Human β-NGF): 3.7e-05 s⁻¹
kon (Recombinant Human β-NGF): 3.1e+06 M⁻¹ s⁻¹
Kd [2]: 430 pM
koff [2]: 1.9e-05 s⁻¹
kon [2]: 45000 M⁻¹ s⁻¹

B5: DVD1990 (bispecific antibody)
DVD-H: EIVMTQSPATLSVSPGERATLSCRASQSVSSNLAWYQQKPGQAPRLLIHGASIRATGLPARFSGSGSGTEFTLTISSLQSEDFAVYYCQQYNYWWTFGQGTKVEIKRTVAAPEVQLQQSGPELVTPGASVKISCKASGYTFTDHYMSWVKQSHGKSLEWIGDINPYSGETTYNQKFKGTATLTVDKSSSIAYMEIRGLTSEDSAVYYCARDDYDASPFAYWGQGTLVTVSA
DVD-L: EVQLVESGGGLIQPGGSLRLSCAASGFTVSRNYMSWVRQAPGKGLEWVSVIYSGDRTYYADSVKGRFTISRDNSKNTLYLQMNSLRAEDTAVYYCARGEGGFDYWGQGTLVTVSSASTKGPDVQMIQSPSSLSASLGDIVTMTCQASQGTSINLNWFQQKPGKAPKLLIYGSSNLEDGVPSRFSGSRYGTDFTLTISSLEDEDLATYFCLQHSYLPYTFGGGTKLEIK
notes: VH/VL crossover DVD-Ig; also called DVD1990H + DVD1990L; copies: 2 + 2
C-Terminal VD SOST Neutralization Assay IC50 (Wnt-1/luciferase HEK clone #14) (Recombinant Human SOST [3]): > 250000 pM
N-Terminal VD TNFa Neutralization Assay IC50 (L929 cells) [1]: 408 pM
Kd [2]: 16 pM
koff [2]: 4.5e-05 s⁻¹
kon [2]: 2.8e+06 M⁻¹ s⁻¹
Kd (Recombinant Human SOST [4]): 330 pM
koff (Recombinant Human SOST [4]): 0.00058 s⁻¹
kon (Recombinant Human SOST [4]): 1.8e+06 M⁻¹ s⁻¹

B6: DVD1983 (bispecific antibody, not shown: a dimerising Fc or GST)
heavy: DVQMIQSPSSLSASLGDIVTMTCQASQGTSINLNWFQQKPGKAPKLLIYGSSNLEDGVPSRFSGSRYGTDFTLTISSLEDEDLATYFCLQHSYLPYTFGGGTKLEIKRTVAAPQVQLVESGGGVVQPGRSLRLSCAASGFTFSSYDMHWVRQAPGKGLEWVAVIWSDGSIKYYADSVKGRFTISRDNSKNTLYLQMNSLRAEDTAVYYCAREVESAMGGFYYNGMDVWGQGTTVTVSS
light: EVQLQQSGPELVTPGASVKISCKASGYTFTDHYMSWVKQSHGKSLEWIGDINPYSGETTYNQKFKGTATLTVDKSSSIAYMEIRGLTSEDSAVYYCARDDYDASPFAYWGQGTLVTVSAASTKGPDIQMTQSPSSLSASVGDRVTITCRASQGIRIDLGWYQQKPGKAPKRLIYAASTLQSGVPSRFSGSGSGTEFIFTISSLQPEDFASYYCLQHKSYPLTFGGGTKVEIKR
N-Terminal VD SOST Neutralization Assay IC50 (Wnt-1/luciferase HEK clone #14) (Recombinant Human SOST [3]): > 360000 pM
C-Terminal VD TNFα Neutralization Assay IC50 (L929 cells) [1]: 127 pM

B7: AB022 (antibody, V domains shown)
VH: EVQLQQSGPELVTPGASVKISCKASGYTFTDHYMSWVKQSHGKSLEWIGDINPYSGETTYNQKFKGTATLTVDKSSSIAYMEIRGLTSEDSAVYYCARDDYDASPFAYWGQGTLVTVSA
VL: DVQMIQSPSSLSASLGDIVTMTCQASQGTSINLNWFQQKPGKAPKLLIYGSSNLEDGVPSRFSGSRYGTDFTLTISSLEDEDLATYFCLQHSYLPYTFGGGTKLEIKR
notes: Parent antibody; also called SOST parent antibody
SOST Neutralization Assay IC50 (Wnt-1/luciferase HEK clone #14) (Recombinant Human SOST [3]): 34800 pM
Kd (Recombinant Human SOST [4]): 18 pM
koff (Recombinant Human SOST [4]): 0.00038 s⁻¹
kon (Recombinant Human SOST [4]): 2.1e+07 M⁻¹ s⁻¹

B8: DVD1959 (bispecific antibody, not shown: a dimerising Fc or GST)
heavy: DVQMIQSPSSLSASLGDIVTMTCQASQGTSINLNWFQQKPGKAPKLLIYGSSNLEDGVPSRFSGSRYGTDFTLTISSLEDEDLATYFCLQHSYLPYTFGGGTKLEIKRTVAAPQVQLKESGPGLVAPSQSLSITCTVSGFSLTDYGVNWVRQPPGKGLEWLGMIWGDGSTDYDSTLKSRLSISKDNSKSQIFLKMNSLQTDDTARYYCAREWHHGPVAYWGQGTLVTVSA
light: EVQLQQSGPELVTPGASVKISCKASGYTFTDHYMSWVKQSHGKSLEWIGDINPYSGETTYNQKFKGTATLTVDKSSSIAYMEIRGLTSEDSAVYYCARDDYDASPFAYWGQGTLVTVSAASTKGPDIVMTQSHKFMSTTVGDRVSITCKASQAVSSAVAWYQQKPGQSPKLLIYWASTRHTGVPDRFTGSGSVTDFTLTIHNLQAEDLALYYCQQHYSTPFTFGSGTKLEIKR
N-Terminal VD SOST Neutralization Assay IC50 (Wnt-1/luciferase HEK clone #14) (Recombinant Human SOST [3]): 54200 pM
C-Terminal VD TNFα Neutralization Assay IC50 (L929 cells) [1]: 1520 pM

B9: DVD1993 (bispecific antibody)
DVD-H: DIQMTQSPSSLSASVGDRVTITCRASQSISNNLNWYQQKPGKAPKLLIYYTSRFHSGVPSRFSGSGSGTDFTFTISSLQPEDIATYYCQQEHTLPYTFGQGTKLEIKRTVAAPEVQLVESGGGLIQPGGSLRLSCAASGFTVSRNYMSWVRQAPGKGLEWVSVIYSGDRTYYADSVKGRFTISRDNSKNTLYLQMNSLRAEDTAVYYCARGEGGFDYWGQGTLVTVSS
DVD-L: QVQLQESGPGLVKPSETLSLTCTVSGFSLIGYDLNWIRQPPGKGLEWIGIIWGDGTTDYNSAVKSRVTISKDTSKNQFSLKLSSVTAADTAVYYCARGGYWYATSYYFDYWGQGTLVTVSSASTKGPEIVMTQSPATLSVSPGERATLSCRASQSVSSNLAWYQQKPGQAPRLLIHGASIRATGLPARFSGSGSGTEFTLTISSLQSEDFAVYYCQQYNYWWTFGQGTKVEIK
notes: VH/VL crossover DVD-Ig; also called DVD1993H + DVD1993L; copies: 2 + 2
C-Terminal VD TNFα Neutralization Assay IC50 (L929 cells) [1]: 2080 pM
Kd (Recombinant Human β-NGF): 4.7 pM
koff (Recombinant Human β-NGF): 1.5e-05 s⁻¹
kon (Recombinant Human β-NGF): 3.3e+06 M⁻¹ s⁻¹
Kd [2]: 430 pM
koff [2]: 3.5e-05 s⁻¹
kon [2]: 81000 M⁻¹ s⁻¹

B10: AB218 (antibody, V domains shown)
VH: EVQLVESGGGLIQPGGSLRLSCAASGFTVSRNYMSWVRQAPGKGLEWVSVIYSGDRTYYADSVKGRFTISRDNSKNTLYLQMNSLRAEDTAVYYCARGEGGFDYWGQGTLVTVSS
VL: EIVMTQSPATLSVSPGERATLSCRASQSVSSNLAWYQQKPGQAPRLLIHGASIRATGLPARFSGSGSGTEFTLTISSLQSEDFAVYYCQQYNYWWTFGQGTKVEIKR
notes: Parent antibody
TNFα Neutralization Assay IC50 (L929 cells) [1]: 179 pM
Kd [2]: 41 pM
koff [2]: 7.3e-05 s⁻¹
kon [2]: 1.8e+06 M⁻¹ s⁻¹
